# According to paper doi:10.1101/2022.09.01.504486:
# Target: PfCelTOS
# Experiment: cross-linking
substance,measurement,value
PfCelTOS (natural protein),stoichiometry N,2
